The results in this text go back to PMC7615647, “Visualization of direct and diffusion-assisted RAD51 nucleation by full-length human BRCA2 protein” (Molecular cell, 2023).

B1: 167mer 3' tailed DNA (mixed)
DNA 1: CTGCTTTATCAAGATAATTTTTCGACTCATCAGAAATATCCGTTTCCTATATTTATTCCTATTATGTTTTATTCATTTACTTATTCTTTATGTTCATTTTTTATATCCTTTACTTTATTTTCTCTGTTTATTCATTTACTTATTTTGTATTATCCTTATCTTATTTA
DNA 2: CGGATATTTCTGATGAGTCGAAAAATTATCTTGATAAAGCAG
B2: BRCA2-C (residues 966-1596, 2477-3194, 3265-3330)-eGFP (domain or fragment, human, UniProt P51587 966-1596, looked up)
chain: TLGQDLKSDISLNIDKIPEKNNDYMNKWAGLLGPISNHSFGGSFRTASNKEIKLSEHNIKKSKMFFKDIEEQYPTSLACVEIVNTLALDNQKKLSKPQSINTVSAHLQSSVVVSDCKNSHITPQMLFSKQDFNSNHNLTPSQKAEITELSTILEESGSQFEFTQFRKPSYILQKSTFEVPENQMTILKTTSEECRDADLHVIMNAPSIGQVDSSKQFEGTVEIKRKFAGLLKNDCNKSASGYLTDENEVGFRGFYSAHGTKLNVSTEALQKAVKLFSDIENISEETSAEVHPISLSSSKCHDSVVSMFKIENHNDKTVSEKNNKCQLILQNNIEMTTGTFVEEITENYKRNTENEDNKYTAASRNSHNLEFDGSDSSKNDTVCIHKDETDLLFTDQHNICLKLSGQFMKEGNTQIKEDLSDLTFLEVAKAQEACHGNTSNKEQLTATKTEQNIKDFETSDTFFQTASGKNISVAKESFNKIVNFFDQKPEELHNFSLNSELHSDIRKNKMDILSYEETDIVKHKILKESVPVGTGNQLVTFQGQPERDEKIKEPTLLGFHTASGKKVKIAKESLDKVKNLFDEKEQGTSEITSFSHQWAKTLKYREACKDLELACETIEITAAPKCKEMQNPLDLITSLQNARDIQDMRIKKKQRQRVFPQPGSLYLAKTSTLPRISLKAAVGGQVPSACSHKQLYTYGVSKHCIKINSKNAESFQFHTEDYFGKESLWTGKGIQLADGGWLIPSNDGKAGKEEFYRALCDTPGVDPKLISRIWVYNHYRWIIWKLAAMECAFPKEFANRCLSPERVLLQLKYRYDTEIDRSRRSAIKKIMERDDTAAKTLVLCVSDIISLSANISETSSNKTSSADTQKVAIIELTDGWYAVKAQLDPPLLAVLKNGRLTVGQKIILHGAELVGSPDACTPLEAPESLMLKISANSTRPARWYTKLGFFPDPRPFPLPLSSLFSDGGNVGCVDVIIQRAYPIQWMEKTSSGLYIFRNEREEEKEAAKYVEAQQKRLEALFTKIQEEFEEHEENTTKPYLPSRALTRQQVRALQDGAELYEAVKNAADPAYLEGYFSEEQLRALNNHRQMLNDKKQAQIQLEIRKAMESAEQKEQGLSRDVTTVWKLRIVSYSKKEKDSVILSIWRPSSDLYSLLTEGKRYRIYHLATSKSKSKSERANIQLAATKKTQYQQLPVSDEILFQIYQPREPLHFSKFLDPDFQPSCSEVDLIGFVVSVVKKTGLAPFVYLSDECYNLLAIKFWIDLNEDIIKPHMLIAASNLQWRPESKSGLLTLFAGDFSVFSASPKEGHFQETFNKMKNTVENIDILCNEAENKLMHILHANDPKWSTPCKKRRALDFLSRLPLPPPVSPICTFVSPAAQKAFQPPRSCGTKYETPIKKKELNSPQMTPFKKFNE
notes: BRCA2, human, residues 966-1596 (BRC repeats 1-4); BRCA2, human, residues 2477-3194 (C-DBD); BRCA2, human, residues 3265-3330 (TR2); No linkers between the three stretches are stated; source: High Five insect cells, baculovirus (pFBDM-BRCA2-C, MultiBac), purified (StrepTrap, Heparin); not shown: eGFP, C-terminal, kept
B3: RAD51 C319S labelled with Alexa Fluor 647 C2 maleimide (natural protein, human, UniProt Q06609 1-339, looked up)
chain: MAMQMQLEANADTSVEEESFGPQPISRLEQCGINANDVKKLEEAGFHTVEAVAYAPKKELINIKGISEAKADKILAEAAKLVPMGFTTATEFHQRRSEIIQITTGSKELDKLLQGGIETGSITEMFGEFRTGKTQICHTLAVTCQLPIDRGGGEGKAMYIDTEGTFRPERLLAVAERYGLSGSDVLDNVAYARAFNTDHQTQLLYQASAMMVESRYALLIVDSATALYRTDYSGRGELSARQMHLARFLRMLLRLADEFGVAVVITNQVVAQVDGAAMFAADPKKPIGGNIIAHASTTRLYLRKGRGETRICKIYDSPSLPEAEAMFAINADGVGDAKD
modifications: Alexa Fluor 647 C2 maleimide (labelled residue not stated; protein to dye ratio 0.9-1.0)
notes: RAD51 recombinase, human, C319S variant; also called RAD51(A647); RAD-51(A647); source: E. coli BLR(DE3)pLysS (pET11c-RAD51 C319S), purified (ammonium sulphate, Q Sepharose, Heparin, Mono Q), then labelled

For series [1], the target named is BRCA2-eGFP;RAD51(A647) (Homo sapiens;Homo sapiens) (UniProt P51587). Kind of series: single-molecule optical tweezers/confocal. The settings on record: EMSA: 4 nM Cy5-DNA, 20 mM HEPES pH 7.5, 1 mM MgCl2, 1 mM TCEP, 100 mM KCl, 24 C, 5 min, single-molecule (Fig 1): 100 mM NaCl, 2 mM MgCl2, 1 mM CaCl2, 2 mM ATP ….
The test system of series [2] is RAD51(A647) (Homo sapiens). Kind of series: single-molecule optical tweezers/confocal. The settings on record: biotinylated hairpin end caps, EMSA: 4 nM Cy5-DNA, 20 mM HEPES pH 7.5, 1 mM MgCl2, 1 mM TCEP, 100 mM KCl, 24 C, 5 min, single-molecule (Fig 1): 100 mM NaCl, 2 mM MgCl2, 1 mM CaCl2, 2 mM ATP ….
In series [3] the target is BRCA2-eGFP (Homo sapiens, UniProt P51587 1-3418). Kind of series: EMSA; retains high ssDNA affinity; EMSA: 4 nM Cy5-DNA, 20 mM HEPES pH 7.5, 1 mM MgCl2, 1 mM TCEP, 100 mM KCl, 24 C, 5 min; single-molecule (Fig 1): 100 mM NaCl, 2 mM MgCl2, 1 mM CaCl2, 2 mM ATP. The settings on record: protein: recombinant; tags: C-terminal Ala8 linker, eGFP(A207K), Flag3; label: 5'-Cy5 on strand 1; 42 bp duplex, 3' overhang on strand 1.

Series [4] has as its target B3. Kind of series: single-molecule confocal fluorescence imaging with dual optical trapping (C-trap); BRCA2-eGFP (full length or truncation) and 20 nM RAD51(A647) moving together on lambda dsDNA held at 10 pN; 50 mM Tris-HCl pH 7.5, 50 mM NaCl or as indicated (25-150 mM), 2 mM MgCl2, 2 mM ATP, 0.2 mg/ml BSA. Conditions: both partners purified.
For series [5], the target named is T1, BRCA2-N (residues 1-2142)-eGFP (human, UniProt P51587 1-2142).
T1 construct: BRCA2, human, residues 1-2142 (N-DBD and BRC repeats 1-8; lacks C-DBD, TR2 and exC-DBR); also called N-DBD-BRC1-8 truncated protein; source: High Five insect cells, baculovirus (pFBDM-BRCA2-N, MultiBac), purified (StrepTrap, Heparin); not shown: eGFP, C-terminal, kept
The description is as above. The settings on record: both partners purified.

Series [6] deals with T2, BRCA2-C2 (residues 966-3418)-eGFP (human, UniProt P51587 966-3418).
T2 construct: BRCA2, human, residues 966-3418 (BRC repeats 1-8, C-DBD, TR2, full exC-DBR; lacks N-DBD); source: High Five insect cells, baculovirus (pFBDM-BRCA2-C2, MultiBac), purified (StrepTrap, Heparin); not shown: eGFP, C-terminal, kept
The description is as above. The settings on record: both partners purified.

The target of series [7] is T3, full-length human BRCA2-eGFP (human, UniProt P51587 1-3418).
T3 construct: breast cancer susceptibility protein 2 (BRCA2), human, full length, 3,418 amino acids; Sf9 codon-optimised gene; Order on the chain: BRCA2, (alanine)8 linker, monomeric eGFP A207K (so in the source), Flag3; Eluted from FLAG resin with Flag3 peptide; no tag cleavage is described; also called BRCA2 fl; fl BRCA2; source: Sf9 insect cells, baculovirus (pFB-BRCA2-eGFP), purified (FLAG M2 agarose, SP …)
In words: single-molecule confocal fluorescence imaging with dual optical trapping (C-trap); 5 nM BRCA2-eGFP and 25 nM RAD51(A647) together in solution; order of their arrival on gapped lambda DNA held between beads; 50 mM Tris-HCl pH 7.5, 100 mM NaCl, 2 mM MgCl2, 1 mM CaCl2, 2 mM ATP, 0.2 mg/ml BSA; with or without 1.25 nM RPA. Conditions: both partners purified.

Chain of BRCA2-eGFP;RAD51(A647) (Homo sapiens;Homo sapiens) (P51587 whole entry, looked up): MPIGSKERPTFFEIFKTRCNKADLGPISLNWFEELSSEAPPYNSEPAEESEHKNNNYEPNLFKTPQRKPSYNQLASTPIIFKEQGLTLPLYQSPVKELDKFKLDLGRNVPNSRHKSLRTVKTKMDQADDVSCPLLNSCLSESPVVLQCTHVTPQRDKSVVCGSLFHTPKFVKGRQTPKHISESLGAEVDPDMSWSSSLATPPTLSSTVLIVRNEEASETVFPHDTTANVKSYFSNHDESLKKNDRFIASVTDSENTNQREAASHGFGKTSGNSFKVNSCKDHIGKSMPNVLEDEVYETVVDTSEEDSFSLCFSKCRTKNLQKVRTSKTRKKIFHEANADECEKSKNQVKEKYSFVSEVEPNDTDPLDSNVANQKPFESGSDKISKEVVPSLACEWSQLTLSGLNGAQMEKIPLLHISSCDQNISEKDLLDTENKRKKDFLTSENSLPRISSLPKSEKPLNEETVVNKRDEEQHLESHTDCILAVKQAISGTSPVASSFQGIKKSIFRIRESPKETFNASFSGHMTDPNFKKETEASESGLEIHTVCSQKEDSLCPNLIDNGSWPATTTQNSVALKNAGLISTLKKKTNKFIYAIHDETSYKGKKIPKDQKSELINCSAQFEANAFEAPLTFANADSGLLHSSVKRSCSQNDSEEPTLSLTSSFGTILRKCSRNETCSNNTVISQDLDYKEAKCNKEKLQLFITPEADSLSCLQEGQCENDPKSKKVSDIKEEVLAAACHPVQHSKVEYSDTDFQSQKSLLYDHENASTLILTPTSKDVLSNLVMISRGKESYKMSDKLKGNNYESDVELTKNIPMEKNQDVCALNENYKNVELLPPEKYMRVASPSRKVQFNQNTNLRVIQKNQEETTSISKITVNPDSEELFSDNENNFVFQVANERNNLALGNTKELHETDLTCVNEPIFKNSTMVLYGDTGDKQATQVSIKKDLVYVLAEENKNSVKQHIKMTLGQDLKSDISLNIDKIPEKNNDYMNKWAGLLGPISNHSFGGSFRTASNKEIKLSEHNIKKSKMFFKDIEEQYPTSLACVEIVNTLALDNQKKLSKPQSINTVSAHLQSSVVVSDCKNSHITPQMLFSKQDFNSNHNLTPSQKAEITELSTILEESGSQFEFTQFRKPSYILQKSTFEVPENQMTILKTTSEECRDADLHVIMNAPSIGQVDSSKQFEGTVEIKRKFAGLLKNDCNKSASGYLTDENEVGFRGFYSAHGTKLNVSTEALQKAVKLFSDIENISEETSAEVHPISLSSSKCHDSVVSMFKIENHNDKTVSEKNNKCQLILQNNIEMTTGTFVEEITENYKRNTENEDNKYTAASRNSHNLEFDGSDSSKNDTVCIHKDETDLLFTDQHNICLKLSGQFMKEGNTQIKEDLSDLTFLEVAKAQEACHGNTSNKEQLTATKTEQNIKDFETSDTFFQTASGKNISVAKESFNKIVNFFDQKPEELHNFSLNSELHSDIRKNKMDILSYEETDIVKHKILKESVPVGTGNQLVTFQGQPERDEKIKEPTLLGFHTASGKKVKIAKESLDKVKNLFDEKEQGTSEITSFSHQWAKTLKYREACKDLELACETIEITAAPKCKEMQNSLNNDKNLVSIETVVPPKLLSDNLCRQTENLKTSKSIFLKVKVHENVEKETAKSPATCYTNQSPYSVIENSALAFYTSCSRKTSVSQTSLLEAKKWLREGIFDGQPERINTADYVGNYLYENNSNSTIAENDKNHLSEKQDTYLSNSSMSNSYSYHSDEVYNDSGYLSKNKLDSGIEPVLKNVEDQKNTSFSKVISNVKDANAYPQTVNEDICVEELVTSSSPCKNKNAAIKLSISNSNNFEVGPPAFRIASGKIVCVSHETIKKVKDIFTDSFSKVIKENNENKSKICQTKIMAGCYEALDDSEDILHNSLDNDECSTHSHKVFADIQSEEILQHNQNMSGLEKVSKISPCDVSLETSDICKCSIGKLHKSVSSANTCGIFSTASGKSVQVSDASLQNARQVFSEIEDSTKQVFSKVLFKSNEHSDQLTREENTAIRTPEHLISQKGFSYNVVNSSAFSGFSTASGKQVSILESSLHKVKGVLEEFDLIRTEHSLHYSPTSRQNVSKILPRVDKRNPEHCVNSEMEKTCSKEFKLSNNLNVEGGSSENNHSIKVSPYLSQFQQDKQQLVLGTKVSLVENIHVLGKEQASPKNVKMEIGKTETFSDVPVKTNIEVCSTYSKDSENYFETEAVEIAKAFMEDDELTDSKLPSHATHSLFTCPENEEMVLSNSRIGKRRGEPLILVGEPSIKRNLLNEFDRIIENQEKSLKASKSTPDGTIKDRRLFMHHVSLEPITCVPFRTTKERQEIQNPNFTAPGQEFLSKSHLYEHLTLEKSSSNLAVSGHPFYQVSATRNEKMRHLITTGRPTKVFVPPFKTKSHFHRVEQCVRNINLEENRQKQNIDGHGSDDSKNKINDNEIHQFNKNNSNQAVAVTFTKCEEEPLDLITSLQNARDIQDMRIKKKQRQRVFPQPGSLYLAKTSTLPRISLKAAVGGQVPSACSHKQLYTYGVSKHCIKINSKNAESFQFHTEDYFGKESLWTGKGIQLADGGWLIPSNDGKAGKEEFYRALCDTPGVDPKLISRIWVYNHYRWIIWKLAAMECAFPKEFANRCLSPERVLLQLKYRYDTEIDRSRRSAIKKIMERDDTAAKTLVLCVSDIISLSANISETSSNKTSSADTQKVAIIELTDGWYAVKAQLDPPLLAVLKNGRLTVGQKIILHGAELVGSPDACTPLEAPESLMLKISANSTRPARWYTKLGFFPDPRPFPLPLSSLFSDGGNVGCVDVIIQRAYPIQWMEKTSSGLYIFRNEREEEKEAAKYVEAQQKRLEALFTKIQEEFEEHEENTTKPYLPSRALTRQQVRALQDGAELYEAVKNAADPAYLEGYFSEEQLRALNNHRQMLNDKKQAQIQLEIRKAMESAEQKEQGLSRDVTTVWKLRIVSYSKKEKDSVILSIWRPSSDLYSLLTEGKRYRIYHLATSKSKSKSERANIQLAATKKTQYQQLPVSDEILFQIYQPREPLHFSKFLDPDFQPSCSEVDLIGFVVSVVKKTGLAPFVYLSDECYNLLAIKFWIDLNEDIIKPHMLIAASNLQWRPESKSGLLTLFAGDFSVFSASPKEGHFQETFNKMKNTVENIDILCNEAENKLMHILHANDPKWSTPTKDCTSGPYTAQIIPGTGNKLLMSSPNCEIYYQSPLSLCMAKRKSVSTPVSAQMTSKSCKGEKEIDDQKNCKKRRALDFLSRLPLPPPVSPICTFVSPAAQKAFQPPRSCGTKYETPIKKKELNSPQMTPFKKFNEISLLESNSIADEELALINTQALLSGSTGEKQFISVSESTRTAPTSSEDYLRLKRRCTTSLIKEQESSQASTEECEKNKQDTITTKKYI

For the molecule gapped lambda DNA (gDNA), ssDNA gap, the binding signal (fold nucleation rate vs RAD51 alone) in series [1] (5 nM BRCA2-eGFP, 25 nM RAD51, 2 mM ATP, no RPA, biotinylated hairpin end caps) was determined as 2.7. This molecule displayed a binding signal (s (RAD51 cluster dwell time)) in series [1] (with BRCA2-eGFP, biotinylated hairpin end caps) of 102. In addition, the binding signal (nuclei knt-1 min-1 (nucleation rate)) in series [2] (1.25 nM RPA, 2 mM ATP) turned out to be 0.003; in series [2] (25 nM RAD51, 2 mM ATP, no RPA), 0.277. The molecule further returned a binding signal (s (cluster dwell time)) in series [2] (no BRCA2) of 27.2.
The molecule “lambda dsDNA (including dsDNA arms of gDNA)” registered a binding signal (um2 s-1 (1D diffusion coefficient)) in series [1] (sliding on dsDNA, biotinylated ends) of 0.04.
Take B1: in series [3], the binding result was “binds”.
As to B2, the binding result in series [4] is listed as “binds”.
Turning to B3, the binding result in series [5], in series [6] and in series [7] was “binds” each time.
